The values that follow come from article PMC6101483, “Investigating mycobacterial topoisomerase I mechanism from the analysis of metal and DNA substrate interactions at the active site”.

For the data set, the target named is T1, MtbTOP1-704t (Mycobacterium tuberculosis, UniProt P9WG49 2-704).
T1 sequence: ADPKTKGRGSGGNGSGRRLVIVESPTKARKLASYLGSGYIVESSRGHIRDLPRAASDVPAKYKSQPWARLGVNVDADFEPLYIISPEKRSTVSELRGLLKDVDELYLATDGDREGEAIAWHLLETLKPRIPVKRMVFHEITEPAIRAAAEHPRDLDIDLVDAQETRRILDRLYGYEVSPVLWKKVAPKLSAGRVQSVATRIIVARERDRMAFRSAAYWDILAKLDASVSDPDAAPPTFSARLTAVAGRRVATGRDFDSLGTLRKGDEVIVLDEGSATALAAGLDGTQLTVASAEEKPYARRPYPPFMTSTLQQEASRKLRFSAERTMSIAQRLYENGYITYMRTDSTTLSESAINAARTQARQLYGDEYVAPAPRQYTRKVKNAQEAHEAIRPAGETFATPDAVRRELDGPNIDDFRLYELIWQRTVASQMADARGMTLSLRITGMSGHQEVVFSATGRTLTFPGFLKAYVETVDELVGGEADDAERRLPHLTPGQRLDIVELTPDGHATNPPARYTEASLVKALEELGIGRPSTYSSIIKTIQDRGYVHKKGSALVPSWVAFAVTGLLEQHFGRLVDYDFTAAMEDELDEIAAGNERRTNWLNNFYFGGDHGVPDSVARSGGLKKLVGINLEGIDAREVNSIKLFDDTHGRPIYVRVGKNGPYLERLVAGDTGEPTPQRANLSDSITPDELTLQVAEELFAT
Kind of data set: X-ray crystallography; no metal at active site; 2.42 A. Conditions: protein: recombinant; tags: His6-Mocr removed by TEV; N-terminal SNA remains; single strand.

With TTCCGCTTGAC (ssDNA) [MTS2-11], the binding result is listed as “binds”.
